What all share (experiment): EMSA
What all share (conditions): pH 7.5, 30 min at 37 C
In general terms: Mobility shift assays separate free from complexed probe on a gel.

Series [1] concerns the target T1, GntR-S41A S41A (Streptococcus suis serotype 2 ZY05719) (UniProt A0A0H3MTN4).
T1 sequence: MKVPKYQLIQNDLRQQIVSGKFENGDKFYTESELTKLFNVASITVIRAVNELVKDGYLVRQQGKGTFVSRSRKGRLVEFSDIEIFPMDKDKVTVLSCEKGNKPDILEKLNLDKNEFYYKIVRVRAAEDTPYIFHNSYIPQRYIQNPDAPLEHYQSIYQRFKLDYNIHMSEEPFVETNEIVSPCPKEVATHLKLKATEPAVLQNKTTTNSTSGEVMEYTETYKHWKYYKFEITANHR

The target in series [2] is T2, GntR-S41E S41E (Streptococcus suis serotype 2 ZY05719) (UniProt A0A0H3MTN4).
T2 sequence: T1 sequence with A41E

Series [3] has as its target T3, GntR (Streptococcus suis serotype 2 ZY05719) (UniProt A0A0H3MTN4).
T3 sequence: T1 sequence with A41S

Where a chain is given by its changes, count along the chain named.

“GCCATAATGTAAAATCTCACTTTCGAAAATATATTTTTTTACGAACTATATTATACAATATAAATGTTACCGATTTCAAAAAATATGCTCAGAATATCACATTTTTTTCAAAAAGTTTTTGAAATGCTATTTTCTTTAAACAATGTAAAGATATATAAAAGCAAAAACCTAGATTTCTCTAGGTTTCTCTTAACGTACTTGTTCAAAACGC (double strand) [nox promoter]”: the binding result in series [1] is recorded as “binds”; in series [2], “no binding”; in series [3], “binds”.

For the origin of these results see article PMC10010549.
